The nanobody polyreactivity screen of Harvey et al. (2022)

Assay: yeast display, Sf9 membrane polyspecificity reagent, FACS + sequencing; frameworks hold sequencing errors
Method in brief: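 In a synthetic yeast display library (Saccharomyces cerevisiae BJ5465), nanobody expression was induced with galactose for 36–48 hours. FACS gates were set low and high (top ~1%) using anti-HA fluorescence for expression and streptavidin fluorescence for binding of the Sf9 membrane reagent. Each polyreactivity label is drawn from the gate of origin.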

Row | Sequence | polyreactivity (PSR sort gate)
1 | QVQLVESGGGLVQAGGSLRLSCAASGFTFYYYAMGWYRQAPGKERELVAAITWSGDSTNYADSVKGRFTISRDNAKNTVYLQMNSLKPEDTAVYYCATESYDSYGLYDYWGQGTQVTVSS | low polyreactivity
2 | QVQLVESGGGLVQAGGSLRLSCAASGFTFYYYAMGWYRQSPGKERELVAAISWNGGRTYYADSVKGRFTISRDTAKNNVYLQMNSLKPEDTAVYYCDTGYPIDLGREFDYWGQGIQVTVSS | high polyreactivity
3 | QVQLVESGGGLVQAGGSLRLSCAASGFTFYYYDMGWYRQAPGKERELVAAITTGGSTKYADSVKGRFTISRDNAKNTVYLQMNSLKPEDTAVYYCNADDSVYVFSKYDYWGQGTQVTVSS | high polyreactivity
4 | QVQLVESGGGLVQAGGSLRLSCAASGFTFYYYTMGGSRQAPGKERELVAAITSRGGNTYYADSVKGRFTISRDYAKNTVYLQMNSLNPEDTAVYYCAACRFSSRGYGYWGQGTQVTVSS | high polyreactivity
5 | QVQLVESGGGLVQAGGSLRLSCAASGFTFYYYTMGRYRQAPGKEIELLADISSGDRTYYADSVKGRFTISRDNAKNTVYLQMNSLKPEDTAVYYCAAPAKYYTRFGHYNLNQDYDSWGQGTQVTVSS | low polyreactivity
6 | QVQLVESGGGLVQAGGSLRLSCAASGFTIAQNVMGWYRQAPGKERELVAAISVSGGSTYYADSVKGRFTISRDNAKNTVYLQMNSLKPEDTAVYYCNAVAGVTKRVDLSRSGYWGLGTQVTVSS | high polyreactivity
7 | QVQLVESGGGLVQAGGSLRLSCAASGFTIASNAMGWYRQAPGKERELVAAIRRSGSRTYYADSVKGRFTISRDNAKNTVYLQMNSLKPEDTAVYYCAVVSPRQSYYYWGQGTQVTVSS | high polyreactivity
8 | QVQLVESGGGLVQAGGSLRLSCAASGFTIDSYAMGWYRQAPGTERELVAAISYRGGTTYYADSVKGRFTISRDNAKNTVYLQMNSLKPEDTAVYYCNRMWKYGFNYWGQGTQVTVSA | high polyreactivity
9 | QVQLVESGGGLVQAGGSLRLSCAASGFTIFIYAMGWYRQAPGKEREFVAAITGSGGSTYYADSVKGRFTISRDNAKNTVYLQMNSLKPEDTAVYYCAAESEYVYWYYVDYDYWGQGTQVTVSS | high polyreactivity
10 | QVQLVESGGGLVQAGGSLRLSCAASGFTIGANTMGWYRQAPGKERELVAAISASGGSTYYADSVKGRFTISRDNAKNTVYLQMNSLKPEDTAVYYCAARRYPGRTATYYSWGQGTQVTVSS | high polyreactivity
11 | QVQLVESGGGLVQAGGSLRLSCAASGFTIGHYAMGWYRQAPGKERELVAAISSGDRTYFADSVKGRFTISRDNAKNTFYLQMNSLKPEDTAVYYCNAVYYSWAQSARFDYWGQGTQVTVSS | low polyreactivity
12 | QVQLVESGGGLVQAGGSLRLSCAASGFTIGRYDMGWYRQAPGKERELVAAISWSGGSTYYADSVKGRFTISRDNAKNTVYLQMNSLKPEDTAVYYCNAAYYGYENLSKRGYWGQGTQVTVSS | high polyreactivity
13 | QVQLVESGGGLVQAGGSLRLSCAASGFTIGRYTMGWYRQAPGKERELVAAISWSGGSTYYADSVKGRFTISRDNAKNTVYLQMNSLKPEDTAVYYCAKVFRGGRGDYWGQGTQVTVSS | high polyreactivity
14 | QVQLVESGGGLVQAGGSLRLSCAASGFTIGYKVMGWYRQAPGKERELVATISWNGARTYYADSVKGRFTISRDNAKNTVYLQMNSLKPEDTAVYYCAARRYYRGEYDYWGQGTQVTVSS | low polyreactivity
15 | QVQLVESGGGLVQAGGSLRLSCAASGFTIHYNAMGWYRQAPGKERELVATISKSAGITSYADSVKGRFTISRDNAKNTVYLLMNSLKPEDTAVYYCAADKSYRRVYYWGQGTQVTVSS | low polyreactivity
16 | QVQLVESGGGLVQAGGSLRLSCAASGFTIQPYTMGWYRQATGKERELVAAISKSGGSTYYADSVKGRFTISRDNAKNTVYLQMHSLKPEDTAVYYCAAVGWWGTSDYWGQGTQVTVSS | high polyreactivity
17 | QVQLVESGGGLVQAGGSLRLSCAASGFTIRSYVMGWYRQAPGKEREFVAAISYRGGGTNYADSVKGRFTISRDNAKNTVYLQMNSLKPEDTAVYYCNARSGSSKSGYYNWGQGTQVTVSS | high polyreactivity
18 | QVQLVESGGGLVQAGGSLRLSCAASGFTISAYAMGWYRQAPGKERELVAAITSGGGSTRYADSVKGRFTISRDNAKNTVYLQMNSLKPEDTAVYYCAARNHRYKFNYWGQGTQVTVSS | high polyreactivity
19 | QVQLVESGGGLVQAGGSLRLSCAASGFTITDYAMGWYRQAPGKVRELVAAITWSGGSTYYADSVKGRFTLSRDNAKNTVYLQMNSLKPEDTAVYYCNKVTEGLKMDYWGQGTQVTVSS | low polyreactivity
20 | QVQLVESGGGLVQAGGSLRLSCAASGFTIWSYAMGWYRQAPGKERELVAAINYRGTSTYYADSVKGRFTISRDNAKNTVYLQMHSLKPEDTAVYYCAARYYTWQRPTYDYWGQGTQVTVSS | high polyreactivity
21 | QVQLVESGGGLVQAGGSLRLSCAASGFTIYKNAMAWYRQAPGKERELVAAISGRGGSTTYADSVKGRFTISRDNAKNTVYLQMNSLKPEDTAVYYCAARFTYSYPLFGSWGQGTQVTVSS | high polyreactivity
22 | QVQLVESGGGLVQAGGSLRLSCAASGFTIYRYALGGYRPAPGKERELVAAISKSGVSTYYADSVKGRFTISRDNAKNTVYLLMNSLKPEDTAVYYCAVSLTYRWISFDYWGQGTQVTVSS | high polyreactivity

Row | Sequence | polyreactivity (PSR sort gate)
23 | QVQLVESGGGLVQAGGSLRLSCAASGFTIYWYTMVWYRQAPGKERELVAAISRRGGRTYYADSVKGRFTISRDNAKNTVYLQMNSLKPEDTAVYYCAADGTSPVDMNYWGQGTQVTVSS | high polyreactivity
24 | QVQLVESGGGLVQAGGSLRLSCAASGFTIYYYAMGWYRQAPGKERELVASISWSGGSTNYADSVKGRFTISRDNAKNTVYLQMNRLKPEDTAVYYCNTAGPYRRDYWGQGTQVTVSS | high polyreactivity
25 | QVQLVESGGGLVQAGGSLRLSCAASGFTLADNTMGWYRQAPGKEMELVAAITSGASTYYADSVKGRFTISRDNAKNTVYLQMNSLKPEDTAVYYCAALYYWLSGYDYWGQGTQVTVSS | low polyreactivity
26 | QVQLVESGGGLVQAGGSLRLSCAASGFTLAYYAMGWYRQAPGKERELVAAITADTGTTYYADSVKGRFTISRDNAKNTVYLQMNSLKPEDTAVYYCATRDVFYEDDYWGQGTQVTVSS | high polyreactivity
27 | QVQLVESGGGLVQAGGSLRLSCAASGFTLAYYAMGWYRQAPGKERELVATISRRGGSTNYADSVKGRFTISRDNAKNTVYLQMNSLKPVDTAVYYCARTLYRGKSYHGHSKYDYWGQGTQVTVSS | high polyreactivity
28 | QVQLVESGGGLVQAGGSLRLSCAASGFTLDDNGMGWYRQAPGKERELVASITWSGGSTYYADSVKGRFTISRDNAKNTVYLQMNSLKPEDTAVYYCNVGDPIGGFLSYWGGDYWGQGTQVTVSS | low polyreactivity
29 | QVQLVESGGGLVQAGGSLRLSCAASGFTLDVNAMGLYRHAPGKERELVATISWGGASRYYADSVKGRFTISRDNAKNTVYLQMNRLKPEDTAVFYCAAQFYYPDDKGGYDYWGQGTQVTVSS | low polyreactivity
30 | QVQLVESGGGLVQAGGSLRLSCAASGFTLDWYAKGWYRQAPGKERELVAAISSSGRTNYADSVKGRFTISRDNAKNTVYLQMNSLKPEDTAVYYCNRDYPYIWHKGARYWHENDYWGQGTQVTVTS | low polyreactivity
31 | QVQLVESGGGLVQAGGSLRLSCAASGFTLDWYAMGWYRQAPGKERELVAAIWSAGTTYYADSVKGRFTISRDNAKNTVYLQMNSLKPEDTAVYYCATVSDYDFGLYDYWGQGTQVTVSS | low polyreactivity
32 | QVQLVESGGGLVQAGGSLRLSCAASGFTLEDYTMGWYRQAPGKERELVARITSGGSTNYADSVKGRFTISRDNAKNTVYLQMNSLKPEDTAVYYCNARYAWINMDYWGQGTQVTVSS | low polyreactivity
33 | QVQLVESGGGLVQAGGSLRLSCAASGFTLEFSAMGWYRQAPGKERELVASISSGGRTNYADSVKGRFTISRDNAKNTVYLQMYSLKPVDTAVYYCAAEYRSWGRYRYRFNYWGQGTQVTVSS | high polyreactivity
34 | QVQLVESGGGLVQAGGSLRLSCAASGFTLFGYAMGWYRQAPGKERELVAAITSGDGRTYYADSVKGRFTISRDNAKNTVYLQMNSLKPEDTAVYYCAATRYSSYYYVRHDHWGQGTQVTVSS | low polyreactivity
35 | QVQLVESGGGLVQAGGSLRLSCAASGFTLGDNAMGWSRQAPGKERELVAAISGGGSSTYYADSVKGRFTISRDNAKNTVYLQMNSLKPEDTAVYYCAADYYFSTYYSRYYFWGQGTQVTVSS | low polyreactivity
36 | QVQLVESGGGLVQAGGSLRLSCAASGFTLGFYAMGWYRQAPGKESELVAAINWRGGSTYYADSVKGRFTISRDNAKNTVYLQMNSLKPEDTAVYYCNARWARGRYAQYVGLDREYDYWGQGTQVTVSS | high polyreactivity
37 | QVQLVESGGGLVQAGGSLRLSCAASGFTLGRYAMGWYRQAPGKEREFVAAISSSGTTTNYADSVKGRFTISRDNAKNTVYLQMNSLKPEDTAVYFCNAYTTKRRWIKYDYWGQGTQVTVSS | high polyreactivity
38 | QVQLVESGGGLVQAGGSLRLSCAASGFTLGSNVMGWYRQAPGKERELVAGISQSGGRTFYADSVKGRFTISRDNAKNTVYLQMNSLKPEDTAVYYCNAYRYYSPYGYWGQGTQVTVSS | low polyreactivity
39 | QVQLVESGGGLVQAGGSLRLSCAASGFTLKYYAMGWYRQAPGKERELVAAITQRGGSTYADSVKGRFTISRDNAKNTVYLQMNSLKPEDTAFYFCAASSAKYRLYGGYDYWGQGTQVTVSS | high polyreactivity
40 | QVQLVESGGGLVQAGGSLRLSCAASGFTLLKYAMGWYIQAPGKERELVAAITRRGGRTSYADSVKGRFTISRDNAKNTVYLQMNSLKPEDTAVYYCNADGDTGRFDYWGQGTQVTVSS | high polyreactivity
41 | QVQLVESGGGLVQAGGSLRLSCAASGFTLLTYVMGWYRQAPGKERELVAAISKSGSRTYYADSVKWRFTISRDNAKNTVYLQMNRLKPVDTPVYYCAADTSAYRYDYWGQGTQVTVSS | high polyreactivity
42 | QVQLVESGGGLVQAGGSLRLSCAASGFTLLVNAMGWYRQAPGKERELVAAITSGGRTNYADSVKGRFTISRDNAKNTVYLQMNSLKPEDTAVYYCARDWGRKPDDGQQAWYEYWGQGTQVTVSS | low polyreactivity
43 | QVQLVESGGGLVQAGGSLRLSCAASGFTLRLYVMGWYRQAPGKERELVAAITSSGGSTYYADSVKGRFTISRDNAKNTVYLQMNSLKPEDTAVYYCAAVNRKSQLYGYWGQGTQVTVSS | high polyreactivity
